The term Kd denotes the equilibrium constant for the complex coming apart.

This note sets out measurements from patent US20230159601A1 (SEOUL NATIONAL UNIVERSITY HOSPITAL, published 2023).

The experiment deals with T1, recombinant human proprotein convertase subtilisin/kexin type-9 (rhPCSK9) (human, UniProt Q8NBP7 31-692, limits assumed).
T1 construct: Elsewhere it is called His-rhPCSK9; also called recombinant hPCSK9; recombinant human PCSK9
The experiment is described as follows: surface plasmon resonance, direct binding analysis between rhPCSK9 and CAP1 (FIG. 1E). A general note: Surface plasmon resonance follows binding to a sensor surface in real time, without labels.

T1 sequence (Q8NBP7 31-692 limits assumed): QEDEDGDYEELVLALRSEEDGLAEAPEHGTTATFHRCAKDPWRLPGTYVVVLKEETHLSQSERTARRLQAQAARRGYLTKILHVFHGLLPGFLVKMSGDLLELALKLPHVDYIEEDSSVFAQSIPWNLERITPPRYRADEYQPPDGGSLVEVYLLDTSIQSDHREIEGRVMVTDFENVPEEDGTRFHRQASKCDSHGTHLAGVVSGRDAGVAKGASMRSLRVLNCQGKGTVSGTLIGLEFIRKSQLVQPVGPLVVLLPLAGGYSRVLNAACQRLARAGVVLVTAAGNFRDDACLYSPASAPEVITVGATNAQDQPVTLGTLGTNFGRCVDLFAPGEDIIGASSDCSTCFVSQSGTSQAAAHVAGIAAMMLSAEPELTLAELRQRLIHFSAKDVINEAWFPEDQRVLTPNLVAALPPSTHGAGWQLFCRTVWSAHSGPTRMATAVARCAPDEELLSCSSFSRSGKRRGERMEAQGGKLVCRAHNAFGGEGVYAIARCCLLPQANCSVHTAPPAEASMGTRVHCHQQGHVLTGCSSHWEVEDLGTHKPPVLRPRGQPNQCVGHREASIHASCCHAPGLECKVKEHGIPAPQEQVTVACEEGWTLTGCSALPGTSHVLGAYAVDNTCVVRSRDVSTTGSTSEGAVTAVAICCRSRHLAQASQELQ

B1: human adenylyl cyclase-associated protein 1 (CAP1), wild type (other)
chain: MADMQNLVERLERAVGRLEAVSHTSDMHRGYADSPSKAGAAPYVQAFDSLLAGPVAEYLKISKEIGGDVQKHAEMVHTGLKLERALLVTASQCQQPAENKLSDLLAPISEQIKEVITFREKNRGSKLFNHLSAVSESIQALGWVAMAPKPGPYVKEMNDAAMFYTNRVLKEYKDVDKKHVDWVKAYLSIWTELQAYIKEFHTTGLAWSKTGPVAKELSGLPSGPSAGSGPPPPPPGPPPPPVSTSSGSDESASRSALFAQINQGESITHALKHVSDDMKTHKNPALKAQSGPVRSGPKPFSAPKPQTSPSPKRATKKEPAVLELEGKKWRVENQENVSNLVIEDTELKQVAYIYKCVNTTLQIKGKINSITVDNCKKLGLVFDDVVGIVEIINSKDVKVQVMGKVPTISINKTDGCHAYLSKNSLDCEIVSAKSSEMNVLIPTEGGDFNEFPVPEQFKTLWNGQKLVTTVTEIAG
notes: also called hCAP1; wtCAP1
In the case of B1, the Kd amounted to 1010 nM.
